Experimental data as given in patent US12447213B2, “Modulation of novel immune checkpoint targets” (The Brigham and Women's Hospital, Inc., priority 2016, dated 2025).

B1: CD166: recombinant CD166; transmembrane glycoprotein (type I) encoded by the ALCAM gene, novel ligand of ILT-3 (protein, UniProt Q13740 28-583, looked up)
CD166 antigen: WYTVNSAYGDTIIIPCRLDVPQNLMFGKWKYEKPDGSPVFIAFRSSTKKSVQYDDVPEYKDRLNLSENYTLSISNARISDEKRFVCMLVTEDNVFEAPTIVKVFKQPSKPEIVSKALFLETEQLKKLGDCISEDSYPDGNITWYRNGKVLHPLEGAVVIIFKKEMDPVTQLYTMTSTLEYKTTKADIQMPFTCSVTYYGPSGQKTIHSEQAVFDIYYPTEQVTIQVLPPKNAIKEGDNITLKCLGNGNPPPEEFLFYLPGQPEGIRSSNTYTLTDVRRNATGDYKCSLIDKKSMIASTAITVHYLDLSLNPSGEVTRQIGDALPVSCTISASRNATVVWMKDNIRLRSSPSFSSLHYQDAGNYVCETALQEVEGLKKRESLTLIVEGKPQIKMTKKTDPSGLSKTIICHVEGFPKPAIQWTITGSGSVINQTEESPYINGRYYSKIIISPEENVTLTCTAENQLERTVNSLNVSAISIPEHDEADEISDENREKVNDQAKLIVGIVVGLLLAALVAGVVYWLYMKKSKTASKHVNKDLGNMEENKKLEENNHKTEA

What was measured:
[1] = vaccination alone or combined with a low dose of estramustine; cited from earlier work
Th17 cells = test: Binding of recombinant His-tagged CD166 to Th17 cells (FACS); set-up: species or system mice; conditions: exogenous, 10 ug/ml; HBSS
Experimental: FIG. 50. Exogenous CD166 binds weakly to Th17 cells (in HBSS). In vitro differentiated pathogenic and non-pathogenic Th17 cells were incubated with recombinant His-tagged CD166 (10 ug/ml) in indicated buffer at room temperature for 30 min, washed twice, and then incubated with anti-His antibody for 10 min. Stained cells were analyzed by FACS.
(§1) To investigate the role of CD166, CD4+CD44^loCD62L^hi naïve CD4 T cells were sorted by FACS and cultured in vitro with plate-bound anti-CD3 (2 ug/ml) and anti-CD28 (2 ug/ml) plus the following polarizing cytokines: IL12 (20 ng/ml) for Th1 cells; IL4 (20 ng/ml) for Th2 cells; TGFb (5 ng/ml) for iTreg cells; IL27 (25 ng/ml) for Tr1 cells; TGFb (2 ng/ml) and IL6 (25 ng/ml) for non-pathogenic Th17; TGFb (2 ng/ml), IL6 (25 ng/ml) and IL23 (20 ng/ml), or, […] (25 ng/ml) and IL23 (20 ng/ml) for pathogenic Th17. Expression of CD166 was measured by FACS on day 3. […] (FIG. 48). To determine the effect of plate-bound CD166, naïve T cells from spleen of WT or Gp49b KO mouse were differentiated into pathogenic in vitro with anti-CD3/CD28 Dynabeads in the presence of plate bound recombinant CD166 (10 ug/ml) or BSA (10 ug/ml) as control. Cytokine production from Th17 cells were measured by FACS on day 4. […] Next, the role of exogenous CD166 was assayed. […] Stained cells were analyzed by FACS.

pathogenic Th17 cells = test: Pathogenic Th17 differentiation in the presence of plate bound recombinant CD166, cytokine production by FACS; type: cell-based, mouse; conditions: 10 ug/ml, Gp49 dependent, WT or Gp49b KO
Experimental: FIG. 49. Plate-bound CD166 inhibits GM-CSF and enhances IL10 production from pathogenic Th17 cells in a Gp49 dependent way. Naïve T cells from spleen of WT or Gp49b KO mouse were differentiated into pathogenic in vitro with anti-CD3/CD28 Dynabeads in the presence of plate bound recombinant CD166 (10 ug/ml) or BSA (10 ug/ml) as control. Cytokine production from Th17 cells were measured by FACS on day 4.
as §1

Molecule	patients with a ≥50% decrease in serum prostate specific antigen (PSA) [1] [%]	binding to Th17 cells (Th17 cells)	GM-CSF production from pathogenic Th17 cells (pathogenic Th17 cells)	IL10 production from pathogenic Th17 cells (pathogenic Th17 cells)
C[C@]12CC[C@@H]3c4ccc(OC(=O)N(CCCl)CCCl)cc4CC[C@H]3[C@@H]1CC[C@@H]2O [estramustine]	54			
B1		binds weakly	inhibits	enhances
